pEC50, pKd: −log10 of the molar value.

From patent publication US20190177730 come the findings set out here.

The target of data set [1] is T1, PCSK9 D374Y D374Y (Homo sapiens) (UniProt Q8NBP7+Q8NBP7). The data set is described as follows: inhibition. The note with it: all C = PP-dC (5-position), all U = Nap-dU (5-position); blocks PCSK9 D374Y binding to LDL-R, room temperature; text names 11733-198.
Data set [2] has as its target T1, PCSK9 D374Y D374Y (Homo sapiens). The data set is described as follows: filter. The note with it: all C = PP-dC (5-position), all U = Nap-dU (5-position); aptamer identity per figure legend; text names 11733-198.

T1 sequence (Q8NBP7 whole entry, stated change not applied, chain 1 of 2): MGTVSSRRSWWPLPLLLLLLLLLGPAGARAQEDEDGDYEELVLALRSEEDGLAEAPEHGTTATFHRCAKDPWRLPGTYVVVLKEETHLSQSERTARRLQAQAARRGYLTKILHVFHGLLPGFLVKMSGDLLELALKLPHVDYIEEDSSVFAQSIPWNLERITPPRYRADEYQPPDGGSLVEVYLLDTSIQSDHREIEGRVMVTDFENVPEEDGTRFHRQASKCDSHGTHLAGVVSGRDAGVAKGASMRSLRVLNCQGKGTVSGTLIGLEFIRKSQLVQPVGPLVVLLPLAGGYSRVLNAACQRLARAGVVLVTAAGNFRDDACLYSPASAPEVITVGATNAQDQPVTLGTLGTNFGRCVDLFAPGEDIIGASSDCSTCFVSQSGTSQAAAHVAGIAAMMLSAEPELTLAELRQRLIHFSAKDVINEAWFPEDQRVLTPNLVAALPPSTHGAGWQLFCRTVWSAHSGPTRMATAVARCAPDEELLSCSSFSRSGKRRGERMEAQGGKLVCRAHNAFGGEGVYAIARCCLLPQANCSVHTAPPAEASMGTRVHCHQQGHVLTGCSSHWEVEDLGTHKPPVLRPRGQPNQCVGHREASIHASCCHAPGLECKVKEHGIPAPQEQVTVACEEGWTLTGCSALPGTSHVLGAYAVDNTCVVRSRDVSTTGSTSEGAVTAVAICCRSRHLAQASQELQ
T1 sequence (Q8NBP7 whole entry, stated change not applied, chain 2 of 2): as the sequence (Q8NBP7 whole entry, stated change not applied, chain 1 of 2) above

For orientation: pEC50 means −log10 of the EC50, conventionally taken in molar units. One may read the pKd as the Kd on a negative log10 scale, so that one unit is a factor of ten. Higher therefore signals a small Kd. In data set [1], “AACGUACUUUAAGGCCUAUUGAGGAAACUC [11733-44 (SL1063)]” showed a pEC50 of 8.44. In data set [2], this sequence gave a pKd of 11.28.
